{"source": "paper doi:10.1101/2022.05.13.491857", "target": "GST-Rac1^QP (UniProt P63000)", "experiment": "pull-down", "note": "pKd: −log10 of the molar value.", "data": [{"substance": "WRC^Y967A (from UniProt Q7L576 1-1253; Q9Y2A7 1-1128; Q92558 1-230; Q9NYB9 1-158; Q8WUW1 1-75) (complex)", "values": [{"measurement": "pKd", "result": 5.70}]}]}
